Data published in article PMC4330388.

Molecular target: T1, PPR10 (Zea mays, UniProt B8Y6I0 96-786)
T1 sequence: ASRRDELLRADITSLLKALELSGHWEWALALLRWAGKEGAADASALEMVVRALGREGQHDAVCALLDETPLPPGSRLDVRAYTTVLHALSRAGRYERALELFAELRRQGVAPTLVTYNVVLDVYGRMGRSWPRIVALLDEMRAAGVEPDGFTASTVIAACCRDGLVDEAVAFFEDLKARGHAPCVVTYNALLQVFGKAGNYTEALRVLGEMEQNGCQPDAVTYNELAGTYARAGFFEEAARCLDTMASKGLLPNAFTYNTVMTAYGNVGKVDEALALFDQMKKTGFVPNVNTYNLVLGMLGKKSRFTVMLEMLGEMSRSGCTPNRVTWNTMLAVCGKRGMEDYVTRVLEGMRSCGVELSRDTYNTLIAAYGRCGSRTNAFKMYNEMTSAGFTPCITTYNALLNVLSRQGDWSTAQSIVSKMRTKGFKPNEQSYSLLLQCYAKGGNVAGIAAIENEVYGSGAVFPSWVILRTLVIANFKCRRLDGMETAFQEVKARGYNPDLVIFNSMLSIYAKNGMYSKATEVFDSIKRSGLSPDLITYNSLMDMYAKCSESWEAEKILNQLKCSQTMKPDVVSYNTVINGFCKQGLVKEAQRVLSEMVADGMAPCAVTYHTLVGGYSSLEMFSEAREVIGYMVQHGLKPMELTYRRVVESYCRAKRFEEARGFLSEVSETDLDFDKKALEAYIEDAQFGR
Experiment: SEC-SAXS

## GUAUCCUUAACCAUUUC (ssRNA) [atpH RNA 17-mer]
  binding result: binds
